In PMC6816377 (mAbs, 2019):

Assays:
[1] = target: T1, hen egg lysozyme (Gallus gallus (hen egg white), UniProt P00698); experiment: flow cytometry on cells
[2] = target: T1, hen egg lysozyme; experiment: ELISA
[3] = target: T1, hen egg lysozyme; experiment: BLI

T1 sequence (P00698 19-147): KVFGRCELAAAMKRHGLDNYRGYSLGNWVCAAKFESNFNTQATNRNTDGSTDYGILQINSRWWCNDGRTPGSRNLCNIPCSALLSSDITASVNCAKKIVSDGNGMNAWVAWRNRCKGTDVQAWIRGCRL

| binding result [2] | Binder | other results |
| --- | --- | --- |
| – | HEL23 (antibody, V domains shown) VH: EVQLQQSGAELMKPGASVKISCKATGYTFSNYWIGWVKQRPGHGLEWIGEILPGSGSTNYNEKFKGKATFTADTSSNTAYMQLSSLTSEDSAVYYCARDSSGGFAYWGQGTLVTVSA VL: DIVLTQSPAIMSASLGERVTMTCTASSNVSSSYLHWYQQKPGSSPKLWIYSTSNLASGVPARFSGSGSGTSYSLTISSMEAEDAATYYCHQYHRSPPTFGAGTKLEIK | binding result [1]: binds |
| binds | HEL23 variant 4 (antibody, V domains shown) VH: EVQVQQSGAELKKPGASVKISCKATGYTFSNYWIGWVKQRPGHGLEWIGEILPSSSSTNYNEKFKGKATFTADTSSNTAYMQLSSLTSEDSAVYYCARDSSGGFAYWGQGSLVTVSA VL: DIVLTQSPAIMSASLGERVTMTCTASSNVSSSYLHWYQQKPGSSPKLWIYSTSNLASGVPARFSGSGSGTSYSLTISSMEAEDAATYYCHQYHRSPPTFGAGTKLEIK | – |
| binds | HEL23 variant 5 (antibody, V domains shown) VH: EVQLQQSGAELMKPGASVKISCKATGYTFSNYWIGWVKQRPGHGLEWIGEILPSSGSTNYNEKFKGKATFTADTSSNIAYMQLSSLTSEDSAVYYCARDSSGGFAYWGQGTLVTVSA VL: DIVLTQSPAIMSASLGERVTMTCTASSNVSSSYLHWYQQKPGSSPKLWIYSTSNLASGVPARFSGSGSGTSYSLTISSMEAEDAATYYCHQYHRSPPTFGAGTKLEIK | – |
| – | HEL23 variant 1 (antibody, V domains shown) VH: EVQLRQSGAELMKPGASVKISCKATGYTFSNYWIGWVKQRPGHGLEWIGEILPGSGSTNYNEKFKGKATFTADTSSNTAYMQLSSLTSEDGAVYYCARDSSGGFVYWGRGTLVTVSA VL: DIVLTQSPAIMSASLGERVTMTCTASSNVSSSYLHWYQQKPGSSPKLWIYSTSNLASGVPARFSGSGSGTSYSLTISSMEAEDAATYYCHQYHRSPPTFGAGTKLEIK | binding result [3]: binds |
| binds | HEL23 variant 3 (antibody, V domains shown) VH: EVQLQQSGAELMKPGASVKISSKATGYTFSNYWIGWVKQRPGHGLEWIGEILPGSGSTNYNEKFKGKATFTADTSSNTAYMQLNSLTSEDSAVYYCARDSSGGFAYWGQGTLVTVSA VL: DIVLTQSPAIMSASLGERVTMTCTASSNVSSSYLHWYQQKPGSSPKLWIYSTSNLASGVPARFSGSGSGTSYSLTISSMEAEDAATYYCHQYHRSPPTFGAGTKLEIK | – |
